Source: the supplement of paper PMC9112550, “Optimization of the antimicrobial peptide Bac7 by deep mutational scanning” (BMC Biology, 2022)

System: Escherichia coli TOP10
Test: shrunken log2 fold change of peptide-encoding DNA abundance (4.5 h post-induction vs induction); higher = less antimicrobial activity (less host growth inhibition)
Details: time post-induction: 4.5 h; library: site-saturation at positions 5, 18, 19, 20
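Further: peptides expressed intracellularly from a pBAD plasmid library in pooled LB shake-flask culture, induced with 0.3% L-arabinose, DNA abundance read by NGS, three biological replicates, DESeq2 with apeglm shrinkage.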

| Sequence | shrunken log2 fold change |
| --- | --- |
| RRIRDRPPRLPRPRPRPITVPRP | -0.0979 |
| RRIRDRPPRLPRPRPRPIVSPRP | 0.041 |
| RRIRDRPPRLPRPRPRPIWIPRP | 0.0877 |
| RRIRDRPPRLPRPRPRPIWMPRP | -0.00247 |
| RRIRDRPPRLPRPRPRPIWYPRP | -0.0481 |
| RRIRDRPPRLPRPRPRPIYCPRP | 0.0039 |
| RRIRDRPPRLPRPRPRPKAGPRP | 0.143 |
| RRIRDRPPRLPRPRPRPKAPPRP | 0.341 |
| RRIRDRPPRLPRPRPRPKCLPRP | 0.313 |
| RRIRDRPPRLPRPRPRPKDAPRP | -0.018 |
| RRIRDRPPRLPRPRPRPKEGPRP | 0.32 |
| RRIRDRPPRLPRPRPRPKFLPRP | -0.241 |
| RRIRDRPPRLPRPRPRPKGLPRP | 0.253 |
| RRIRDRPPRLPRPRPRPKHNPRP | -0.0986 |
| RRIRDRPPRLPRPRPRPKIGPRP | -0.0266 |
| RRIRDRPPRLPRPRPRPKKDPRP | 0.199 |
| RRIRDRPPRLPRPRPRPKNKPRP | -0.314 |
| RRIRDRPPRLPRPRPRPKPSPRP | 0.503 |
| RRIRDRPPRLPRPRPRPKPTPRP | 0.0678 |
| RRIRDRPPRLPRPRPRPKQQPRP | -0.053 |
| RRIRDRPPRLPRPRPRPKSNPRP | -0.305 |
| RRIRDRPPRLPRPRPRPKTKPRP | -0.0788 |
| RRIRDRPPRLPRPRPRPKTSPRP | 0.0412 |
| RRIRDRPPRLPRPRPRPKVEPRP | 0.109 |
| RRIRDRPPRLPRPRPRPLAEPRP | 1.17 |

| Sequence | shrunken log2 fold change |
| --- | --- |
| RRIRDRPPRLPRPRPRPLAHPRP | 0.151 |
| RRIRDRPPRLPRPRPRPLCCPRP | 0.0616 |
| RRIRDRPPRLPRPRPRPLDAPRP | 0.0602 |
| RRIRDRPPRLPRPRPRPLDCPRP | 0.118 |
| RRIRDRPPRLPRPRPRPLDPPRP | 0.0323 |
| RRIRDRPPRLPRPRPRPLFHPRP | -0.152 |
| RRIRDRPPRLPRPRPRPLGAPRP | 0.751 |
| RRIRDRPPRLPRPRPRPLGNPRP | -0.0332 |
| RRIRDRPPRLPRPRPRPLHGPRP | 0.01 |
| RRIRDRPPRLPRPRPRPLHHPRP | -0.314 |
| RRIRDRPPRLPRPRPRPLHIPRP | -0.0915 |
| RRIRDRPPRLPRPRPRPLHLPRP | -0.0348 |
| RRIRDRPPRLPRPRPRPLIKPRP | 0.153 |
| RRIRDRPPRLPRPRPRPLIRPRP | -0.0502 |
| RRIRDRPPRLPRPRPRPLLDPRP | 0.17 |
| RRIRDRPPRLPRPRPRPLLQPRP | 0.287 |
| RRIRDRPPRLPRPRPRPLLSPRP | 0.447 |
| RRIRDRPPRLPRPRPRPLMQPRP | 0.823 |
| RRIRDRPPRLPRPRPRPLMRPRP | 0.665 |
| RRIRDRPPRLPRPRPRPLMYPRP | -0.00328 |
| RRIRDRPPRLPRPRPRPLNEPRP | -0.188 |
| RRIRDRPPRLPRPRPRPLNIPRP | -0.161 |
| RRIRDRPPRLPRPRPRPLNRPRP | -0.0679 |
| RRIRDRPPRLPRPRPRPLQSPRP | -0.015 |
| RRIRDRPPRLPRPRPRPLRDPRP | 0.537 |

| Sequence | shrunken log2 fold change |
| --- | --- |
| RRIRDRPPRLPRPRPRPLSWPRP | 0.488 |
| RRIRDRPPRLPRPRPRPLTSPRP | 0.109 |
| RRIRDRPPRLPRPRPRPLWWPRP | 0.721 |
| RRIRDRPPRLPRPRPRPLYSPRP | -0.411 |
| RRIRDRPPRLPRPRPRPMANPRP | -0.0338 |
| RRIRDRPPRLPRPRPRPMCLPRP | 0.131 |
| RRIRDRPPRLPRPRPRPMCSPRP | 0.261 |
| RRIRDRPPRLPRPRPRPMFEPRP | 0.0172 |
| RRIRDRPPRLPRPRPRPMFKPRP | -0.767 |
| RRIRDRPPRLPRPRPRPMFTPRP | -0.174 |
| RRIRDRPPRLPRPRPRPMGCPRP | -0.000921 |
| RRIRDRPPRLPRPRPRPMHEPRP | 0.0698 |
| RRIRDRPPRLPRPRPRPMHTPRP | 0.0757 |
| RRIRDRPPRLPRPRPRPMHWPRP | 0.591 |
| RRIRDRPPRLPRPRPRPMIEPRP | 0.0558 |
| RRIRDRPPRLPRPRPRPMKAPRP | 0.0349 |
| RRIRDRPPRLPRPRPRPMKGPRP | 0.0395 |
| RRIRDRPPRLPRPRPRPMKKPRP | 0.0162 |
| RRIRDRPPRLPRPRPRPMKSPRP | 0.0815 |
| RRIRDRPPRLPRPRPRPMMCPRP | -0.131 |
| RRIRDRPPRLPRPRPRPMNCPRP | -0.00373 |
| RRIRDRPPRLPRPRPRPMPWPRP | -0.0438 |
| RRIRDRPPRLPRPRPRPMQPPRP | 0.0977 |
| RRIRDRPPRLPRPRPRPMRQPRP | 0.0681 |
| RRIRDRPPRLPRPRPRPMRSPRP | -0.00884 |

| Sequence | shrunken log2 fold change |
| --- | --- |
| RRIRDRPPRLPRPRPRPMTFPRP | -0.0951 |
| RRIRDRPPRLPRPRPRPMTLPRP | 0.0841 |
| RRIRDRPPRLPRPRPRPMVCPRP | 0.141 |
| RRIRDRPPRLPRPRPRPMWCPRP | 0.00673 |
| RRIRDRPPRLPRPRPRPMWIPRP | -0.306 |
| RRIRDRPPRLPRPRPRPNAIPRP | 0.13 |
| RRIRDRPPRLPRPRPRPNCSPRP | 0.271 |
| RRIRDRPPRLPRPRPRPNDPPRP | -0.125 |
| RRIRDRPPRLPRPRPRPNEMPRP | 0.00902 |
| RRIRDRPPRLPRPRPRPNGGPRP | -0.0647 |
| RRIRDRPPRLPRPRPRPNGHPRP | -0.252 |
| RRIRDRPPRLPRPRPRPNHEPRP | -0.0728 |
| RRIRDRPPRLPRPRPRPNHSPRP | -0.33 |
| RRIRDRPPRLPRPRPRPNIIPRP | -0.117 |
| RRIRDRPPRLPRPRPRPNILPRP | -0.437 |
| RRIRDRPPRLPRPRPRPNKSPRP | -0.534 |
| RRIRDRPPRLPRPRPRPNLLPRP | -0.0507 |
| RRIRDRPPRLPRPRPRPNMCPRP | -0.0431 |
| RRIRDRPPRLPRPRPRPNMIPRP | -0.0358 |
| RRIRDRPPRLPRPRPRPNMLPRP | 0.0937 |
| RRIRDRPPRLPRPRPRPNPEPRP | 0.0935 |
| RRIRDRPPRLPRPRPRPNPLPRP | 1.05 |
| RRIRDRPPRLPRPRPRPNQFPRP | -0.416 |
| RRIRDRPPRLPRPRPRPNQQPRP | -0.12 |
| RRIRDRPPRLPRPRPRPNQYPRP | -0.428 |

| Sequence | shrunken log2 fold change |
| --- | --- |
| RRIRDRPPRLPRPRPRPNRPPRP | 0.0951 |
| RRIRDRPPRLPRPRPRPNTKPRP | -0.124 |
| RRIRDRPPRLPRPRPRPNTNPRP | -0.448 |
| RRIRDRPPRLPRPRPRPNTTPRP | -0.0542 |
| RRIRDRPPRLPRPRPRPNTWPRP | 0.23 |
| RRIRDRPPRLPRPRPRPNVTPRP | -0.282 |
| RRIRDRPPRLPRPRPRPNVYPRP | 0.0576 |
| RRIRDRPPRLPRPRPRPNYGPRP | -0.0075 |
| RRIRDRPPRLPRPRPRPPAWPRP | 0.811 |
| RRIRDRPPRLPRPRPRPPDCPRP | 0.077 |
| RRIRDRPPRLPRPRPRPPDTPRP | 0.662 |
| RRIRDRPPRLPRPRPRPPEYPRP | -0.0893 |
| RRIRDRPPRLPRPRPRPPFFPRP | 0.174 |
| RRIRDRPPRLPRPRPRPPFPPRP | 0.206 |
| RRIRDRPPRLPRPRPRPPHCPRP | 0.0674 |
| RRIRDRPPRLPRPRPRPPIRPRP | 0.173 |
| RRIRDRPPRLPRPRPRPPISPRP | 0.024 |
| RRIRDRPPRLPRPRPRPPKGPRP | 0.644 |
| RRIRDRPPRLPRPRPRPPMDPRP | 0.28 |
| RRIRDRPPRLPRPRPRPPNFPRP | 0.0198 |
| RRIRDRPPRLPRPRPRPPPGPRP | 0.774 |
| RRIRDRPPRLPRPRPRPPQKPRP | -0.0517 |
| RRIRDRPPRLPRPRPRPPQWPRP | 0.568 |
| RRIRDRPPRLPRPRPRPPSFPRP | 0.155 |
| RRIRDRPPRLPRPRPRPPTLPRP | -0.0573 |

| Sequence | shrunken log2 fold change |
| --- | --- |
| RRIRDRPPRLPRPRPRPPVWPRP | 1.04 |
| RRIRDRPPRLPRPRPRPPWIPRP | -0.29 |
| RRIRDRPPRLPRPRPRPPWWPRP | 0.461 |
| RRIRDRPPRLPRPRPRPQAMPRP | 0.133 |
| RRIRDRPPRLPRPRPRPQCCPRP | 0.0263 |
| RRIRDRPPRLPRPRPRPQCNPRP | -0.0196 |
| RRIRDRPPRLPRPRPRPQDCPRP | -0.00195 |
| RRIRDRPPRLPRPRPRPQDQPRP | -0.144 |
| RRIRDRPPRLPRPRPRPQFGPRP | -0.36 |
| RRIRDRPPRLPRPRPRPQFSPRP | 0.0361 |
| RRIRDRPPRLPRPRPRPQGCPRP | 0.0122 |
| RRIRDRPPRLPRPRPRPQHMPRP | -0.11 |
| RRIRDRPPRLPRPRPRPQIVPRP | -0.00245 |
| RRIRDRPPRLPRPRPRPQIYPRP | -0.114 |
| RRIRDRPPRLPRPRPRPQKMPRP | -0.0885 |
| RRIRDRPPRLPRPRPRPQLAPRP | 0.505 |
| RRIRDRPPRLPRPRPRPQLQPRP | -0.16 |
| RRIRDRPPRLPRPRPRPQMIPRP | -0.197 |
| RRIRDRPPRLPRPRPRPQMQPRP | 0.135 |
| RRIRDRPPRLPRPRPRPQNLPRP | 0.0232 |
| RRIRDRPPRLPRPRPRPQNNPRP | -0.653 |
| RRIRDRPPRLPRPRPRPQNVPRP | -0.01 |
| RRIRDRPPRLPRPRPRPQNWPRP | -0.00585 |
| RRIRDRPPRLPRPRPRPQQMPRP | -0.0585 |
| RRIRDRPPRLPRPRPRPQRAPRP | 0.0568 |
